This data set in a line: soluble on expression in E. coli; label from the status in PepcDB or PDB records.
In the case of “MNPQLLRVTNRIIERSRETRSAYLARIEQAKTSTVHRSQLACGNLAHGFAACQPEDKASLKSMLRNNIAIITSYNDMLSAHQPYEHYPEIIRKALHEANAVGQVAGGVPAMCDGVTQGQDGMELSLLSREVIAMSAAVGLSHNMFDGALFLGVCDKIVPGLTMAALSFGHLPAVFVPSGPMASGLPNKEKVRIRQLYAEGKVDRMALLESEAASYHAPGTCTFYGTANTNQMVVEFMGMQLPGSSFVHPDSPLRDALTAAAARQVTRMTGNGNEWMPIGKMIDEKVVVNGIVALLATGGSTNHTMHLVAMARAAGIQINWDDFSDLSDVVPLMARLYPNGPADINHFQAAGGVPVLVRELLKAGLLHEDVNTVAGFGLSRYTLEPWLNNGELDWREGAEKSLDSNVIASFEQPFSHHGGTKVLSGNLGRAVMKTSAVPVENQVIEAPAVVFESQHDVMPAFEAGLLDRDCVVVVRHQGPKANGMPELHKLMPPLGVLLDRCFKIALVTDGRLSGASGKVPSAIHVTPEAYDGGLLAKVRDGDIIRVNGQTGELTLLVDEAELAAREPHIPDLSASRVGTGRELFSALREKLSGAEQGATCITF”, the “soluble on expression in E. coli” value was “soluble”.
The entry for “MGSDKIHHHHHHMNTSGWGKYPEIEAQVLTPSSEKALQDLIGTGSYDGVTPRGLGRSYGDSSLGKLMVKTLRLNHMLSFELQSGLLHCQSGVSLAEILEVFVPRGWFLPVTPGTKLVTVGGAIASDIHGKNHHIDGCFCDHVDFLDLLTGSGEIIRCSPHEQAQLFHATCGGMGLTGIILSAAIRLTPIKSAYIDQVTFKSANLGESFELFEKQAEQPYSVAWIDCISSGDKLGRSLLMTGKHAQHGALAAHHNPGLSVPLDLPSFILNPYSIKAFNTLYYHKARQRETHATVHYDPFFYPLDGIGHWNRMYGKNGFTQYQFVIPKEAGLQAMDLILRTIVNSKKGSFLAVLKAFGKENRNLLSFPMEGYTLALDFKIEPDLFPLLDRLDAMVLDHGGRLYLTKDARMNAETFRKCYPKWEQFQNIRQQYGARHTFLSMQSQRLGLD” is “not soluble”.
The entry for “MSSAKLFTPLKVGAITATNRVFMAPLTRLRSIEPGDIPTPLMAEYYRQRASAGLIISEATQISAQAKGYAGAPGLHSDEQIAAWKKITQGVHAQGGHMAVQLWHTGRISHASLQPGGQAPVAPSAINAGTRTSLRDENGQAIRVETSTPRALDTHEIPGIVNDFRQAIANAREAGFDLVELHSAHGYLLHQFLSPSSNHRTDRYGGGVENRARLVLEVVDAGIKEWGADRIGIRLSPVGTFQNVDNGPNEEADALYLIEALGKRGIAYLHMSEPDWAGGEPYSDAFREKVRARFHGPIIGAGAYTPEKAEDLIEKGLIDAVAFGRDYIANPDLVARLQRKAELNPQRPESFYGGGAEGYTDYPTL” is “not soluble”; for “MKYPFYYCCDNLDIKSISVIGDFNNWDGGKNILKRHDDGTWMTEIELSPGKYRYKFLINDSILFNDPNALIYTYDDKGGTASFIIIDESNKRIINTKPASLNIESYSFLSVDKELSYCENGERKCYKDKHSSIMLKIGFSDITGLHTVNAIWYAPNNEIHEIQESVLNDGEKNENRKNEALFQININDDTIAGEWKLQIFINGSLALEDSFTVELKQPEVLDKTALDDAAMLSADLEVPDFLIEEDMQNEFEAPEFEVESNLQTNAEKEEISEEDLLGLFDDIKEIDMPEKDTSGNQKTPAPDETEMPADGNIMNLFDEIRISELKDEKAQDTENNTESTSKEAEESDSAIDELLELREFIDSSQNSEKDSIESSGGKSGEEANEEDISDIFIDIKNRTD” it is “not soluble”; for “KGKKLAVIAVAEHEFNQSENNGPGSAPLDPVDNYYQIREAQAKADIVIVTIHGGNEHFHYPRPGLRKLCKHYIDLGVNAVICHHPHVPGAYEIYNGRPIVYSLGNFVFDTLSMVHEWDVGYMAKLKFNEVD” it is “not soluble”.
The entry for “MSLGYLEAAPYGINAPFAWEVQGGKGSGITFVDMEYGWLLNHEDLVHQNIELMSGINIDQHVGHGTSVLGIVSSEDNEVGNIGIAPKAKAKVISQIRDNGQYNTADAILSAVNQLEAGDVLLLEAQASFDGYGDKYLPVEVQPDIFDAIRAGTDKGVVIIEAGANGWNDLDQFKDRNGKQILNRNSKDFKDSGAIMVGAGSSSFPHERMWFSNYGSRIDVYGWGENVDTTTAEQSRSAVNLYTSSFSGTSSASPIIAGAATLVQSIAKENLGQPYRPSELRAILSNENTGTKSKDPYADQIGVLPDLKSILVNLGYGQRKPNGGNELQVTENEPNNERIQANKVNFHTPMKGTLHNSDRVDVFTFQMDSPENITISLLNEQNIGMTWVLHHESDLNNYVAYGENEGNVVKGTYHAKPGKYYLYVYKYENKDGSYVLNIKEGHHHHHH” is “soluble”; for “MSLRSELPEGFFGPREWARLNAVADIIPGFPHTDFDTANGAEALAEADILLAAWGTPSLTRERLSRAPRLKMLAYAASSVRMVAPAEFWETSDILVTTAASAMAVPVAEFTYAAIIMCGKDVFRLRDEHRTERGTGVFGSRRGRSLPYLGNHARKVGIVGASRIGRLVMEMLARGTFEIAVYDPFLSAEEAASLGAKKAELDELLAWSDVVSLHAPILPETHHMIGARELALMADHAIFINTARGWLVDHDALLTEAISGRLRILIDTPEPEPLPTDSPFYDLPNVVLTPHIAGALGNELRALSDLAITEIERFVAGLAPLHPVHKQDMERMAEGHHHHHH” it is “soluble”.
In the case of “MNVLDEPDRLHGAHVPIRRGSVRQLQWWEPTPAERVRVLAWTCDCQARFYELCQSGGMVYIRRTVQKDPEPEISETHRWPVQEGWRVWFDLLTGEVR”, the “soluble on expression in E. coli” value is given as “not soluble”.
The entry for “MLSKFVVVEVSNSNNTMTLVEYLVTHGFDKFAVVTDLVDHPSFKYKDGSSSPESPSTTASTAAQHTPPRTAVSTPTSINTPVPPHQNKQRHSIDKIAANLSTKKVSPSSIEKQLQRTSHNPLHQLSTPHALSQLQKLLEEQHKINQMNIQKKEQERQQAEIQRILLQQANAAQINHSFGLERLTPEYDDNHHSETISKASSEDLKTEPDSTDFGLGTSDDQVRASMLHLLHPVFAPAFGMLDAENIFGAASKPTTPASKRRNTDSNGAPSKKHRWLPVNELEESRSSRGKNCGRVHCKATYKCALCGKPTTLNSTGSRWNLLRHVIMIHSDCKPYKCWDCDFTGIKSNVISHARQCRHNAEDAHDITTDEMRAEWNLRLHECFPDYVRAKERGWQPEEVTVKKEEVEESPTLVKQELTLVKQEPTFAEQLEPMAQPLV” is “soluble”; for “MDEDTEDWETQLQANRDEKDRFFSEHRQSPIPPEERDDFDGLSYFDPDPDYRVEATVTVHETPESVDLETSDDRTVRYLHVATLSFDLDGESRDLHAFRQAADESRTLFVPFRDKTTGQQSYDGGRYMELEPDRDLSDGDEITLDFNLAYSPFCAYSDTFSCPLPPESNWLETAVTAGERTDLEHHHHHH” it is “soluble”; for “MAHHHHHHMGKKKVGEIQRSEDFCIPAGDRDANSALPAEEWPLLLKNYDKMNVRSTHFTLLECGWSPLRRPLAEYIKYGMINMDKPSNPSSHEVVSWIKRILKCDKTGHAGTLDPKVTGALIICTDRATRLVKSQQNAGKTYIGVLRLHDTVSQKKVDAALQRLTGPCFQRPPLIAAVKRQLRIRNIYSNQLIEYDKHRHLAVFETHCEAGTYIRTLCVHVGLILGAGGHMEELRRIRTGVITENDHLSTMHDVMDAQWLYENEKDDTYLRRVILPCEYLLSNHKRIVVKDSAVNAVCYGAKLMIPGLARFDNGIERDDVVVLMTTKGEAIALAYAEMTTSQMASVDHGIVARSKRVIMDRDTYPRRWGLGPIAVKKRSMMKDGLLDKYGRPQSNTPSDWFYVDYGGVKTNAEGVQYGQAPSKVGGVKRQRVPDSDDD” it is “not soluble”.
The entry for “MDVFDGLPDPIIVDILNKVGDVKTLLRCSSLSKRFNSLVPQSESLTLRLDHSVSDSPVVTSIFRSLFNGLVSLLSKPAKPITITTLSPSLPFKILSRFDRIRNLDVELPGGDVKLEKGAAVKWKAEFGKTLKSCVIVAFRSAGTVSSPVAVEGESDAEFVTGLKTRVVWTISALMAASSRHYLMREVVKEHEEIESLVMRDKEREGTVVMNEEGLKELRNTEARVEDEERVVKNKRSVVPSVRMSMRHAPSLKLKSGICLESATLVIVRPSGADFEVGDDAELATEAFVGDCMYGEAVVALLKCKKNALEMNSF” is “not soluble”; for “MSLSQRTDCSLARRSSTVRKQDSSQAIPLVVESCIRFISRHGLQHEGIFRVSGSQVEVNDIKNAFERGEDPLAGDQNDHDMDSIAGVLKLYFRGLEHPLFPKDIFHDLMACVTMDNLQERALHIRKVLLVLPKTTLIIMRYLFAFLNHLSQFSEENMMDPYNLAICFGPSLMSVPEGHDQVSCQAHVNELIKTIIIQHENIFPSPREEGHHHHHH” it is “soluble”; for “MKSGIYQIKNTLNNKVYVGSAKDFEKAWKRHFKDLEKGCHSSIKLQRSFNKHGNVFECSILEEIPYEKDLIIERENFWIKELNSKINGYNIADATFG” it is “soluble”.
Take “MGHHHHHHSHMIHIVQAKDKGQTARATKFLALDKCLPHRDFLQILEIEHDPSAPDYLEYDIEWLTILRATDDLINVTGRLWNMPESNGLHARWDYSATEEGMKEVLEKLNHDLKVPCNFSVTAACYDPSKPQTQMQLIHRINPQTTEFCAQLGIIDINVRLQKSKEEHHVCGEYEEQDDVESNDSGEDQSEYNTDTSALSSINPDEIMLDEEEDEDSIVSAHSGMNTPSVEPSDQASEFSASFSDVRILPGSMIVSSDDTVDSTIDREGKPGGTVESGNGEDLTKVPLKRLSDEHEPEQRKKIKRRNQAIYAAVDDDDDDAA”: the “soluble on expression in E. coli” value is recorded as “not soluble”.
On to “MSLTETILSVGIDLGTSTTQLILSELEIQNMASSFTVPRIVISDKRIIFRSEILFTPILADNLIDVEAIRDFVTKEYANAGIKKEEIGMGAVIITGETARKDNASNVLDAMSGFAGDFVVATAGPDLESIIAGKGAGAHTYAKENNTSVVNLDIGGGTTNLSLFDRGELIDTACLDIGGRLIKVDRETRKITYIAPKIQALIEKRGYPVKLGETTSPENLQPVLGEMVELLKNSVGLGAPNDFYKTIITNKGLKFLTEIECISFSGGVADCISTGALSDPFRYGDIGLLLGKAIAESSLMTEKKYIESVETIRATVVGAGSHTAEISGSTITYTEKIFPVKNIPILKLAKQEEDENMAEVIKEKLSWFKIENEMEHIALAIEGENSPSFQQVTEYAKAICEGMKEPIALGHPLIIITWHDMAKALGQSIFGHLPAGHPLICLDSVKVDNGDYIDIGKPVADGKVLPVVVKTLVFNEGHHHHHH”, for which the “soluble on expression in E. coli” value is “soluble”.
Take “MGSDKIHHHHHHAPQPTVAVARGKDYARTTRSALALLGGMKRFVKPGDVVVLKPNMGWDRTPAQAANTHPLVVRALAEEALAAGAKRVKVFDRTCNDERRCYVQSGISDALKGMKGVELKFIENERFRRVPIKGAVLPAWELYDEALSADVFINVPVAKHHGLSRLTLGLKNVMGVMGGNRGSIHRHLDDALADINSVLKSHLTVIDATRILTDHGPQGGSPADVKVMDTVIASTDIVAADAYATTLFGLKPEDIPVTVAAHKRGLGEMNLKRVRIVTA”: the “soluble on expression in E. coli” value is recorded as “not soluble”.
The result for “MGHHHHHHSHMSVHKLTDLRDNSTNWKINVKILSIWNHPPNSHGEITTMILHDDKNNRVDATIPQGNYHNPFCPFLKPGTWIHISDFRVVVPQSRVRYSSFRFHIKFIWETSVHPLPELVKRDFFD” reads “not soluble”.
Take “MSQIEKKQLQLGYIPLLDCIALLWAKERGYFEEMGLDVTLVKEASWASLRDRLAFGILDAAHCLSAMLPAAAIGEDQIGIPLKTPLVLSKNRAYISLSQKLCYELSIQNADNAQENSAKLVKYLEQEQSIALAHVFHHSIHHYCLREWLALSHLDLAKAIQLKTLPPPYMLDALASASIDGFCVGEPWNTQGEIEGYSQIVASSRDIIPEVADKVLAVTEEWAAHHPNTVIALTAAILKAQQELETLSNLEPVWQILINFNIVRFQCSKSVHVKSYHALEQIIRHLVVGQAAPCSEDMLWLFGQMQKWHDLTIETTALNELSQRCIDQNSFEKAMQHVQSNTGLEHHHHHH”: the “soluble on expression in E. coli” value is on record as “not soluble”.

For the origin of these results see the DeepSol protein solubility set.
